± gives the standard deviation of the averaged measurements.
Tested on: ATP
Assay: switch fluorescence ratio, 500 uM ATP over buffer (Cy3 cluster intensity, sum of 5 cycles each) (fold (ratio)); higher = stronger signal-on switching upon ATP binding; sequences stand for … in TCGTCGGCAGCGTCAGATGTGTATAAGAGACAGTTTTTTTTTTTTTTTTTTTTTTTTT…TC
Conditions: aptamer strand: ATP DNA aptamer (quencher-CACCTGGGGGAGTATTGCGGAGGAAGG + anchor), 100 nM annealed; ATP concentration: 500 uM
In short: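 After annealing to 100 nM quencher-labelled ATP aptamer, Cy3-labelled switching-strand clusters on a modified Illumina MiSeq flow-cell were imaged in selection buffer. A second image followed after 15 min with 500 uM ATP at 22 °C, and five such buffer/ATP cycles were done, each separated by NaOH stripping and re-annealing. The fluorescence ratio, averaged per switch-domain sequence, is summed target-cycle over summed buffer-cycle Cy3 intensity per cluster, with clusters outside 100-1000 RFU excluded.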
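Note: ATP exposure 15 min at 22 °C before imaging.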

Row | Sequence | switch fluorescence ratio
1 | TAATTTCTAA | 0.9946 ± 0.0029
2 | TAATTTGAGT | 1 ± 0.014
3 | TAATTTGATG | 0.979 ± 0.027
4 | TAATTTGGTT | 1.01 ± 0.026
5 | TAATTTGTTC | 1 ± 0.026
6 | TAATTTTAAA | 0.988 ± 0.018
7 | TAATTTTAAT | 1.025 ± 0.0087
8 | TAATTTTATA | 0.9789 ± 0.0046
9 | TAATTTTTGC | 1.02 ± 0.043
10 | TAATTTTTTG | 0.997 ± 0.021
11 | TACAAATCTA | 1 ± 0.036
12 | TACAAATGTT | 1 ± 0.018
13 | TACAACATTT | 1.06 ± 0.015
14 | TACAACTAGA | 1 ± 0.024
15 | TACAAGCTGT | 1.01 ± 0.014
16 | TACAAGGAGA | 1 ± 0.012
17 | TACAAGGGTA | 1.01 ± 0.06
18 | TACAAGTTTT | 0.986 ± 0.0093
19 | TACAATTTGA | 0.954 ± 0.018
20 | TACAATTTTA | 1.006 ± 0.0041
21 | TACACGCCTT | 1.05 ± 0.015
22 | TACAGAAGCG | 1.033 ± 0.0073
23 | TACAGAATGT | 1.03 ± 0.023
24 | TACAGAGGTT | 1.01 ± 0.059
25 | TACAGATTTG | 1.01 ± 0.037
26 | TACAGCTTCT | 1.005 ± 0.0065

Row | Sequence | switch fluorescence ratio
27 | TACAGGGATC | 0.993 ± 0.027
28 | TACAGGGCCT | 0.9882 ± 0.0085
29 | TACAGGGGGA | 1.09 ± 0.14
30 | TACAGGTCAT | 1 ± 0.018
31 | TACAGGTCGG | 1 ± 0.033
32 | TACAGTAGAT | 1.06 ± 0.038
33 | TACAGTGGAG | 1.011 ± 0.0044
34 | TACAGTTGTA | 0.971 ± 0.06
35 | TACATATGTC | 1.04 ± 0.077
36 | TACATCGTGC | 0.992 ± 0.016
37 | TACATGCATG | 1.001 ± 0.0031
38 | TACATGGACC | 1.12 ± 0.025
39 | TACATTAATA | 1.054 ± 0.0049
40 | TACATTCGTC | 1.07 ± 0.075
41 | TACATTTCCA | 1.04 ± 0.04
42 | TACATTTTTT | 1.01 ± 0.022
43 | TACCACCGGT | 1.02 ± 0.047
44 | TACCAGAGCA | 1.08 ± 0.022
45 | TACCCTGAAA | 1.022 ± 0.0035
46 | TACCCTTCGT | 1.11 ± 0.013
47 | TACCGGGTGG | 1.06 ± 0.027
48 | TACCTAAACG | 1.08 ± 0.033
49 | TACCTTTTAA | 1.02 ± 0.026
50 | TACCTTTTGG | 0.99 ± 0.026
51 | TACGAAATTG | 1.06 ± 0.049
52 | TACGAGTGGT | 0.99394 ± 0.00054

Row | Sequence | switch fluorescence ratio
53 | TACGATAGTC | 1.06 ± 0.069
54 | TACGATGTGG | 1.007 ± 0.0088
55 | TACGATTAGT | 0.9995 ± 0.0053
56 | TACGCACGTA | 1.31 ± 0.17
57 | TACGCATAAT | 1.37 ± 0.014
58 | TACGCTATAA | 2.824 ± 0.0042
59 | TACGGAAAGT | 1.02 ± 0.015
60 | TACGGAGGGC | 1.02 ± 0.05
61 | TACGGCAGTG | 0.998 ± 0.025
62 | TACGGCGCGA | 1.39 ± 0.58
63 | TACGGCTAAG | 1.07 ± 0.047
64 | TACGGGGCGG | 1.36 ± 0.64
65 | TACGGGGTG | 1.05 ± 0.035
66 | TACGGGGTTT | 0.996 ± 0.051
67 | TACGGGTGGG | 1.169 ± 0.01
68 | TACGGTAGGA | 0.9836 ± 0.006
69 | TACGGTGGGC | 0.977 ± 0.018
70 | TACGGTTTGG | 0.988 ± 0.056
71 | TACGGTTTTT | 0.967 ± 0.019
72 | TACGTACAGC | 1.7 ± 0.076
73 | TACGTGGCGG | 1.02 ± 0.02
74 | TACGTGGTTG | 0.99 ± 0.014
75 | TACGTTCAGG | 1.02 ± 0.011
76 | TACGTTTCC | 1.138 ± 0.0089
77 | TACTAACCAT | 1.12 ± 0.066
78 | TACTAAGTGG | 1.05 ± 0.015

Row | Sequence | switch fluorescence ratio
79 | TACTAGGGGA | 1.004 ± 0.0034
80 | TACTAGGTTT | 0.977 ± 0.019
81 | TACTAGTACA | 1.09 ± 0.018
82 | TACTATGGGC | 1.03 ± 0.055
83 | TACTATGGTC | 1.01 ± 0.07
84 | TACTATTTGT | 1.04 ± 0.063
85 | TACTATTTTT | 1 ± 0.018
86 | TACTCACTTC | 1.21 ± 0.035
87 | TACTCAGTGG | 1.01 ± 0.022
88 | TACTCCAAGA | 2.98 ± 1.1
89 | TACTCGTTGA | 1.04 ± 0.021
90 | TACTCTCCTT | 1.09 ± 0.016
91 | TACTGAATTA | 1.03 ± 0.03
92 | TACTGATTTG | 1.02 ± 0.017
93 | TACTGGGACG | 1.004 ± 0.0068
94 | TACTGGGGCG | 0.997 ± 0.082
95 | TACTGGGGTA | 1.02 ± 0.028
96 | TACTGGTCCA | 1.051 ± 0.0087
97 | TACTGGTTCT | 0.984 ± 0.064
98 | TACTGTGTTA | 0.979 ± 0.026
99 | TACTTAAGTT | 1.01 ± 0.019
100 | TACTTAGGGA | 1.031 ± 0.0085
101 | TACTTATGTG | 1.01 ± 0.02
102 | TACTTGAGGC | 1.11 ± 0.21
103 | TACTTGGGTC | 1.06 ± 0.03
104 | TACTTGTCGG | 0.985 ± 0.025

Row | Sequence | switch fluorescence ratio
105 | TACTTGTTAT | 0.989 ± 0.034
106 | TACTTTAGGT | 1.05 ± 0.019
107 | TACTTTATTT | 1.16 ± 0.21
108 | TACTTTCCCG | 1.29 ± 0.13
109 | TACTTTGCG | 1.01 ± 0.017
110 | TACTTTGCTG | 1.02 ± 0.066
111 | TACTTTTCAA | 1.01 ± 0.011
112 | TACTTTTGAA | 0.977 ± 0.022
113 | TACTTTTGCA | 0.985 ± 0.025
114 | TACTTTTTTT | 1.01 ± 0.037
115 | TAGAAAGCCT | 1.06 ± 0.045
116 | TAGAAAGTGT | 1.02 ± 0.019
117 | TAGAAATTGT | 0.997 ± 0.039
118 | TAGAAATTTG | 0.998 ± 0.03
119 | TAGAACATGG | 0.964 ± 0.061
120 | TAGAAGGGAT | 0.987 ± 0.016
121 | TAGAAGGGGA | 0.994 ± 0.044
122 | TAGAAGTCTG | 1.06 ± 0.012
123 | TAGAATCGTT | 0.97 ± 0.05
124 | TAGAATGGAA | 1.02 ± 0.012
125 | TAGAATGTGT | 1.027 ± 0.0043
126 | TAGACTTTAG | 1.0314 ± 0.0007
127 | TAGACTTTAT | 1.02 ± 0.029
128 | TAGAGAAATT | 0.976 ± 0.023
129 | TAGAGACTAA | 0.979 ± 0.029
130 | TAGAGCGGGG | 0.99 ± 0.02

Row | Sequence | switch fluorescence ratio
131 | TAGAGGAGTG | 0.9599 ± 0.0086
132 | TAGAGGCTAA | 0.977 ± 0.013
133 | TAGAGGGCCA | 1.01 ± 0.044
134 | TAGAGGGGGC | 0.987 ± 0.025
135 | TAGAGTAGAT | 1.01 ± 0.02
136 | TAGATAAACT | 0.9969 ± 0.0039
137 | TAGATAGAAT | 1 ± 0.045
138 | TAGATAGCTT | 1.0112 ± 0.001
139 | TAGATATGGT | 0.989 ± 0.021
140 | TAGATCATGT | 1.016 ± 0.0026
141 | TAGATGAGAG | 0.969 ± 0.012
142 | TAGATGATGT | 1.004 ± 0.01
143 | TAGATGGGGT | 1.01 ± 0.031
144 | TAGATGGGTC | 1.01 ± 0.013
145 | TAGATGGTAG | 0.973 ± 0.016
146 | TAGATGGTTT | 0.97 ± 0.036
147 | TAGATGTATT | 0.974 ± 0.013
148 | TAGATTCAGG | 1.004 ± 0.0054
149 | TAGATTGGCG | 0.981 ± 0.043
150 | TAGATTTCGT | 0.9797 ± 0.0052
151 | TAGCAAAAAG | 1.02 ± 0.031
152 | TAGCAAAAGG | 1.03 ± 0.015
153 | TAGCAATGTT | 1.64 ± 0.52

Reference: the supplement of paper PMC10126150
